Article PMC4191409, “AP endonucleases process 5-methylcytosine excision intermediates during active DNA demethylation in Arabidopsis”

What was measured:
MBP-APE1L = biological target: T1, MBP-APE1L (Arabidopsis thaliana (Col-0), UniProt Q5XF07 1-364); test: EMSA; no Mg2+ listed; 100 and 300 nM protein, 50 nM DNA; EMSA: 10 mM Tris-HCl pH 8.0, 150 mM NaCl, 0.05% Triton X-100, 0.1 mg/mL BSA, 10% glycerol, 10 mM DTT; on ice 10 min; 8% native gel; details: protein: recombinant; tags: N-terminal MBP (HRV 3C site); HisTrap purified; label: 32P (5' end of strand 1); blunt
T1 sequence: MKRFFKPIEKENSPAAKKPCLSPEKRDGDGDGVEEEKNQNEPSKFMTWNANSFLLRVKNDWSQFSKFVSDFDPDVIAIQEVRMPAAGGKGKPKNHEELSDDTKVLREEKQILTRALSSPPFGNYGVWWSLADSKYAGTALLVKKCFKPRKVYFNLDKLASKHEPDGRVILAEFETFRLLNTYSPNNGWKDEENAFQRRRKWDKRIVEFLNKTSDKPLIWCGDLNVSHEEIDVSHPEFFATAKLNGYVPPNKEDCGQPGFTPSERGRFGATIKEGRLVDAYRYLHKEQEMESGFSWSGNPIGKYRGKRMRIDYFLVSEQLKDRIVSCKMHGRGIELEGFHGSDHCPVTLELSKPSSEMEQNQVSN

MBP-ARP = biological target: T2, MBP-ARP (Arabidopsis thaliana (Col-0), UniProt P45951 1-536); test: as above; details: protein: recombinant; tags: N-terminal MBP (HRV 3C site); HisTrap purified; label: 32P (5' end of strand 1); blunt
T2 sequence: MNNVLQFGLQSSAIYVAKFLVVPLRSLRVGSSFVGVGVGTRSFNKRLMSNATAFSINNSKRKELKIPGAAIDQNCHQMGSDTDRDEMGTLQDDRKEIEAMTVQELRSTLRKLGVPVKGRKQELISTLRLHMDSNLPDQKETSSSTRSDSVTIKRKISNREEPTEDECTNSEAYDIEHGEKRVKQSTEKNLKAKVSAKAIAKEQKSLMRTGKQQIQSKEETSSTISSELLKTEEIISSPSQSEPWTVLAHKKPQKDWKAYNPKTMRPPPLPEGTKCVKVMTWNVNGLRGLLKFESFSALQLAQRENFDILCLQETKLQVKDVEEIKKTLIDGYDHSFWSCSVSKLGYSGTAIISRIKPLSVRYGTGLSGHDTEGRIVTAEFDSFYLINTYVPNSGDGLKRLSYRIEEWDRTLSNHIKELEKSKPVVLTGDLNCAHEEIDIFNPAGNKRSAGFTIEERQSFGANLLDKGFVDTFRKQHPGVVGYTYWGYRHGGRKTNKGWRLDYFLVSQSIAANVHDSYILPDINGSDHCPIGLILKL

B1: F35[5mC]/R35 (5mC 35-mer) (dsDNA)
DNA 1: GTACTGTGTGATACTATCGAATTCAGTATGATCTG
DNA 2: CAGATCATACTGAATTCGATAGTATCACACAGTAC
modifications: 5-methylcytosine at position 18 of strand 1
B1: binds (MBP-APE1L); binds (MBP-ARP).
